T1: mouse FcγRI on mouse peritoneal macrophages (from FcγRIIb-/- mice) (mouse, UniProt P26151 25-404)
T1 construct: whole, on cells; also called FcγRI on mouse macrophages
T1 sequence (looked up): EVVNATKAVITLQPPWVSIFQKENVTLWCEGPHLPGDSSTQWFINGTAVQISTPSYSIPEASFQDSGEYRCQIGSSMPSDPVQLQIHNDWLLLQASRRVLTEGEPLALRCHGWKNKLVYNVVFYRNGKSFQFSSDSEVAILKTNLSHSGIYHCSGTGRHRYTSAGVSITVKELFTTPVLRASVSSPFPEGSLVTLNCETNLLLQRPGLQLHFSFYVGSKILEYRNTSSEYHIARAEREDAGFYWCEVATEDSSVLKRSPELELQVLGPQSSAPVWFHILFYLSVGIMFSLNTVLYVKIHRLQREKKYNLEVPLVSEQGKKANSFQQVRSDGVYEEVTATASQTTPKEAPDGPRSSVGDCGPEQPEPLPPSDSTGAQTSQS


Tests used:
human FcγRI = target: T2, human FcγRI (human, UniProt P12314 16-288, limits assumed); test: SPR, CRP as analyte on immobilized human FcγR
T2 construct: Immobilized on the SPR chip

human FcγRIII = human FcγRIII (human); test: SPR, CRP as analyte on immobilized human FcγR
[1] = target: T1, mouse FcγRI on mouse peritoneal …; test: two-color flow cytometry of CRP bound to mouse peritoneal macrophages expressing FcγRI (from FcγRIIb-/- mice); panel title 'Binding to FcγRI'
Source text: A. Macrophages expressing FcγRI (from FcγRIIb^{-/-} mice). B. Macrophages expressing FcγRIIb (from FcR γ-chain^{-/-} mice).

T2 sequence (P12314 16-288 limits assumed): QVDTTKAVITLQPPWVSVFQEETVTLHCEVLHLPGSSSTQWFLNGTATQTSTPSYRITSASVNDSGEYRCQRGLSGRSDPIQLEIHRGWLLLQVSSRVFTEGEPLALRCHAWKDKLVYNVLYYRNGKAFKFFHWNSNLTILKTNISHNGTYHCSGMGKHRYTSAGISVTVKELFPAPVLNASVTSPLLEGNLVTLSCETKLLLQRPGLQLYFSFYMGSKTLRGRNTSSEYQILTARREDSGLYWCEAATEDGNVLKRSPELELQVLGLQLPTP
Sequence of human FcγRIII (human) (O75015 17-200): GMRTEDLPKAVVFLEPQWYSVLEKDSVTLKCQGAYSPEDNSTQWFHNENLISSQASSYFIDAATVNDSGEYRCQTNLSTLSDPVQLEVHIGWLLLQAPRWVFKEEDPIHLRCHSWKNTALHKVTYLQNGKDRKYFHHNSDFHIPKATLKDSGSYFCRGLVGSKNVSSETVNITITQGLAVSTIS

Kd (human FcγRI) [µM]	Kd (human FcγRIII) [µM]	binding result [1]	Binder
3.2	4.1	binds	C-reactive protein (human CRP) (ligand, also called purified human CRP; native CRP) QTDMSRKAFVFPKESDTSYVSLKAPLTKPLKAFTVCLHFYTELSSTRGYSIFSYATKRQDNEILIFWSKDIGYSFTVGGSEILFEVPEVTVAPVHICTSWESASGIVEFWVDGKPRVRKSLKKGYTVGAEASIILGQEQDSFGGNFEGSQSLVGDIGNVNMWDFVLSPDEINTIYLGGPFSPNVLNWRALKYEVQGEVFTKPQLWP
3.5	–	binds	Y175L mutant CRP (tyrosine 175 replaced by leucine) (ligand, It has 206 amino acids; The protein is recombinant; also called Y175L CRP; recombinant Y175L mutant CRP) QTDMSRKAFVFPKESDTSYVSLKAPLTKPLKAFTVCLHFYTELSSTRGYSIFSYATKRQDNEILIFWSKDIGYSFTVGGSEILFEVPEVTVAPVHICTSWESASGIVEFWVDGKPRVRKSLKKGYTVGAEASIILGQEQDSFGGNFEGSQSLVGDIGNVNMWDFVLSPDEINTILLGGPFSPNVLNWRALKYEVQGEVFTKPQLWP

Source: patent publication US20110152202A1 (STC UNM, published 2011)
